The record followed here is doi:10.1101/2024.02.15.580496 (bioRxiv, 2024).

This data set concerns the molecule itself. As to the kind of experiment: SEC-MALS. (Size exclusion chromatography separates by hydrodynamic size, large species first.)

Substitutions are numbered along the chain they refer to. Names and notes keep the numbering of the source.

B1: Lip-VIN3VEL (residues 500-603), wild type (domain or fragment)
chain: GKQGGNKRFKSRTVSLNEKPEINNAANGVGDKDLGHIVKTIRCLEEEGHIDKSFRERFLTWYSLRATHREVRVVKIFVETFMEDLSSLGQQLVDTFSESILSKR
B1: the binding result was “binds”.

B2: Lip-VIN3VEL (residues 500-603) I575T (domain or fragment)
chain: B1 chain with I76T
On to B2, for which the binding result is on record as “binds”.
